Assay results published in patent US20210008175A1, “BACTERIOPHAGE LYSIN AND ANTIBIOTIC COMBINATIONS AGAINST GRAM POSITIVE BACTERIA” (priority 2012, published 2021).

Legend:
[1] = system: Streptococcus pyogenes, Group A; assay: MIC, broth microdilution (CLSI M07-A9); format: cell-based; settings: 54 tested
[2] = system: Streptococcus agalactiae, Group B; assay: MIC, broth microdilution (CLSI M07-A9); format: cell-based; settings: 51 tested
[3] = system: Staphylococcus lugdiensis; assay: MIC, broth microdilution (CLSI M07-A9); format: cell-based; settings: 10 tested
[4] = system: Staphylococcus epidermidis; assay: MIC, broth microdilution (CLSI M07-A9); format: cell-based; settings: 11 tested
Streptococcus pneumoniae = assay: MIC, broth microdilution (CLSI M07-A9); format: cell-based; settings: 26 tested
Streptococcus mutans = assay: MIC, broth microdilution (CLSI M07-A9); format: cell-based; settings: 12 tested
Listeria monocytogenes = assay: MIC, broth microdilution (CLSI M07-A9); format: cell-based; settings: 12 tested
Enterococcus faecalis = assay: MIC, broth microdilution (CLSI M07-A9); format: cell-based; settings: 17 tested
Enterococcus faecium = assay: MIC, broth microdilution (CLSI M07-A9); format: cell-based; settings: 5 tested
Bacillus cereus = assay: MIC, broth microdilution (CLSI M07-A9); format: cell-based; settings: 10 tested
Acinetobacter baumannii = assay: MIC, broth microdilution (CLSI M07-A9); format: cell-based; settings: 8 tested
Escherichia coli = assay: MIC, broth microdilution (CLSI M07-A9); format: cell-based
Pseudomonas aeruginosa = assay: MIC, broth microdilution (CLSI M07-A9); format: cell-based
Klebsiella spp. = assay: MIC, sensitivity of human gut bacteria; format: cell-based; settings: N 8
Proteus mirabilis = assay: MIC, sensitivity of human gut bacteria; format: cell-based; settings: N 2
Lactobacillus spp. = assay: MIC, sensitivity of human gut bacteria; format: cell-based; settings: N 6
Lactococcus spp. = assay: MIC, sensitivity of human gut bacteria; format: cell-based; settings: N 3
[5] = system: Staphylococcus aureus (MRSA and MSSA strains); assay: Time kill assay, single agents at 1×MIC (CLSI); format: cell-based
[6] = system: Staphylococcus aureus (MRSA and MSSA strains); assay: Synergy time-kill assay (6 hours, combination compared to most active single agent); format: cell-based; settings: ½ MIC PlySs2 or ¼ MIC vancomycin alone, up to 6 hours
MRSA S. aureus strains = assay: Dual agent MIC assay (PlySs2 and daptomycin together, broth microdilution); format: cell-based; settings: for MIC combo: PlySs2 and daptomycin combined; for MIC alone: single-agent
[7] = system: MRSA strain MW2 and MSSA strain ATCC 29213; assay: MIC in the presence of surfactant (Survanta), broth microdilution; format: cell-based, Staphylococcus aureus; settings: range from 1.25 to 15% surfactant
MRSA strain 269 (MW2) = assay: Combination MIC study in the presence of 15% surfactant (Survanta); format: cell-based, Staphylococcus aureus; settings: PlySs2 plus daptomycin
S. aureus = assay: Murine bacteremia model, survival; format: in vivo, BALB/c mice; settings: for 24 hour survival rate / 72 hour survival rate: high challenge (10^9 CFU MRSA MW2), dosing at 2 hours
MRSA = assay: Murine bacteremia model, MRSA CFUs in the blood; format: in vivo, mice; settings: 5.25 mg/kg PlySs2 at 2-hours post-infection
[8] = system: MRSA strain ATCC 700699 and MSSA strain ATCC 25923; assay: microbe, parasite or virus in culture; format: cell-based, Staphylococcus aureus
[9] = system: MRSA Staphylococcus aureus strain (MW2); assay: microbe, parasite or virus in culture; format: cell-based
S. aureus cocci = assay: Electron microscopy of bacteriolysis; format: cell-based; settings: after only 15 seconds of treatment
[10] = daptomycin 50 mg/kg once daily, PlySs2 5.25 mg/kg (FIG. 27B)
[11] = vancomycin 110 mg/kg twice daily, PlySs2 5.25 mg/kg (FIG. 27E)

B1: PlySs2: bacteriophage lysin derived from Streptococcus suis, amino acid sequence of FIG. 29 (SEQ ID NO: 1), N-terminal CHAP and C-terminal SH3 domain (protein, listed as Streptococcus suis)
chain: MTTVNEALNNVRAQVGSGVSVGNGECYALASWYERMISPDATVGLGAGVGWVSGAIGDTISAKNIGSSYNWQANGWTVSTSGPFKAGQIVTLGATPGNPYGHVVIVEAVDGDRLTILEQNYGGKRYPVRNYYSAASYRQQVVHYITPPGTVAQSAPNLAGSRSYRETGTMTVTVDALNVRRAPNTSGEIVAVYKRGESFDYDTVIIDVNGYVWVSYIGGSGKRNYVATGATKDGKRFGNAWGTFK
MIC 50% [1]: 2 µg/mL | MIC 90% [1]: 8 µg/mL | MIC Range [1]: 0.5 to 8 µg/mL | MIC 50% [2]: 8 µg/mL | MIC 90% [2]: 16 µg/mL | MIC Range [2]: 1 to 64 µg/mL | MIC 50% [3]: 8 µg/mL | MIC 90% [3]: 8 µg/mL | MIC Range [3]: 8 µg/mL | MIC 50% [4]: 128 µg/mL | MIC 90% [4]: 512 µg/mL | MIC Range [4]: 4 to 512 µg/mL | MIC 50% (Streptococcus pneumoniae): 16 µg/mL | MIC 90% (Streptococcus pneumoniae): 64 µg/mL | MIC Range (Streptococcus pneumoniae): 1 to 64 µg/mL | MIC 50% (Streptococcus mutans): 64 µg/mL | MIC 90% (Streptococcus mutans): 256 µg/mL | MIC Range (Streptococcus mutans): 2 to 256 µg/mL | MIC 50% (Listeria monocytogenes): 128 µg/mL | MIC 90% (Listeria monocytogenes): 512 µg/mL | MIC Range (Listeria monocytogenes): 1 to 512 µg/mL | MIC 50% (Enterococcus faecalis): >512 µg/mL | MIC 90% (Enterococcus faecalis): >512 µg/mL | MIC 50% (Enterococcus faecium): >512 µg/mL | MIC 90% (Enterococcus faecium): >512 µg/mL | MIC 50% (Bacillus cereus): >512 µg/mL | MIC 90% (Bacillus cereus): >512 µg/mL | MIC Range (Bacillus cereus): >512 µg/mL | MIC 50% (Acinetobacter baumannii): >512 µg/mL | MIC 90% (Acinetobacter baumannii): >512 µg/mL | MIC Range (Acinetobacter baumannii): >512 µg/mL | MIC 50% (Escherichia coli; 6 tested): >512 µg/mL | MIC 90% (Escherichia coli; 6 tested): >512 µg/mL | MIC Range (Escherichia coli; 6 tested): >512 µg/mL | CF-301 MIC (Escherichia coli; human gut bacteria, N 10): >512 µg/mL | MIC 50% (Pseudomonas aeruginosa; 5 tested): >512 µg/mL | MIC 90% (Pseudomonas aeruginosa; 5 tested): >512 µg/mL | MIC Range (Pseudomonas aeruginosa; 5 tested): >512 µg/mL | CF-301 MIC (Pseudomonas aeruginosa; human gut bacteria, N 11): >512 µg/mL | CF-301 MIC (Klebsiella spp.): >512 µg/mL | CF-301 MIC (Proteus mirabilis): >512 µg/mL | CF-301 MIC (Lactobacillus spp.): >512 µg/mL | CF-301 MIC (Lactococcus spp.): >512 µg/mL | time to reach bactericidal levels (≥3-log10 reduction in CFUs) ([5]; 1×MIC, 20 MSSA and 42 MRSA strains): ≤ 30 minutes | maximal kill (log reduction) ([5]; all MRSA and MSSA strains tested, generally within the first hour of incubation): ≥ 3 log | effectiveness alone at sub-MIC doses [6]: ineffective or poorly effective | Fold reduction (MRSA S. aureus strains; MRSA strain 223): 4 | MIC combo (MRSA S. aureus strains; MRSA strain 223): 0.5 µg/mL | MIC alone (MRSA S. aureus strains; MRSA strain 223): 2 µg/mL | Fold reduction (MRSA S. aureus strains; MRSA strain 241): 2 | MIC combo (MRSA S. aureus strains; MRSA strain 241): 2 µg/mL | MIC alone (MRSA S. aureus strains; MRSA strain 241): 4 µg/mL | Fold reduction (MRSA S. aureus strains; MRSA strain 263): 4 | MIC combo (MRSA S. aureus strains; MRSA strain 263): 2 µg/mL | MIC alone (MRSA S. aureus strains; MRSA strain 263): 8 µg/mL | Fold reduction (MRSA S. aureus strains; MRSA strain 269 (MW2)): 4 | MIC combo (MRSA S. aureus strains; MRSA strain 269 (MW2)): 2 µg/mL | MIC alone (MRSA S. aureus strains; MRSA strain 269 (MW2)): 8 µg/mL | Fold reduction (MRSA S. aureus strains; MRSA strain 270): 4 | MIC combo (MRSA S. aureus strains; MRSA strain 270): 2 µg/mL | MIC alone (MRSA S. aureus strains; MRSA strain 270): 8 µg/mL | Fold reduction (MRSA S. aureus strains; MRSA strain 553): 2 | MIC combo (MRSA S. aureus strains; MRSA strain 553): 1 µg/mL | MIC alone (MRSA S. aureus strains; MRSA strain 553): 2 µg/mL | Fold reduction (MRSA S. aureus strains; MRSA strain 650): 2 | MIC combo (MRSA S. aureus strains; MRSA strain 650): 4 µg/mL | MIC alone (MRSA S. aureus strains; MRSA strain 650): 8 µg/mL | Fold reduction (MRSA S. aureus strains; MRSA strain 827): 2 | MIC combo (MRSA S. aureus strains; MRSA strain 827): 4 µg/mL | MIC alone (MRSA S. aureus strains; MRSA strain 827): 8 µg/mL | Fold reduction (MRSA S. aureus strains; MRSA strain 828): 4 | MIC combo (MRSA S. aureus strains; MRSA strain 828): 2 µg/mL | MIC alone (MRSA S. aureus strains; MRSA strain 828): 8 µg/mL | Fold reduction (MRSA S. aureus strains; MRSA strain 829): 2 | MIC combo (MRSA S. aureus strains; MRSA strain 829): 4 µg/mL | MIC alone (MRSA S. aureus strains; MRSA strain 829): 8 µg/mL | Fold reduction (MRSA S. aureus strains; MRSA strain 830): 2 | MIC combo (MRSA S. aureus strains; MRSA strain 830): 2 µg/mL | MIC alone (MRSA S. aureus strains; MRSA strain 830): 4 µg/mL | Fold reduction (MRSA S. aureus strains; MRSA strain 833): 4 | MIC combo (MRSA S. aureus strains; MRSA strain 833): 2 µg/mL | MIC alone (MRSA S. aureus strains; MRSA strain 833): 8 µg/mL | fold reduction in the effective MIC (MRSA S. aureus strains; PlySs2 and daptomycin together, a dozen MRSA strains): 2-4 fold | inhibition of MIC by surfactant [7]: 8 fold | effective concentration in combination as fraction of MIC (MRSA strain 269 (MW2)): ⅛ | most dilute concentration in combination that still inhibits growth (MRSA strain 269 (MW2)): 2 µg/mL | protection (S. aureus; 5 mg/kg dose): significant protection | dose giving survival enhancement over mock-injected control (S. aureus; dose-response, as little as): 0.25 mg/kg | 24 hour survival rate (S. aureus; [10]): 56% | 72 hour survival rate (S. aureus; [10]): 18% | 24 hour survival rate (S. aureus; [11]): 60% | 72 hour survival rate (S. aureus; [11]): 3% | survival at 72 hours (S. aureus; low challenge model (up to 7×10^6 CFU MRSA MW2), single dose at 4 hours, PlySs2 1.25 mg/kg, daptomycin 2 mg/kg): 13% | decrease in CFUs in blood (MRSA; in 15 minutes): 0.5 log10 | decrease in CFUs in blood (MRSA; within 60 minutes of treatment): 2 log | MIC in daptomycin resistant clones ([8]; over 21 days of in vitro growth): 2 to 4 µg/mL | MIC before daptomycin resistance selection ([8]; start of serial passage): 8 µg/mL | suppression of daptomycin resistance relative to daptomycin alone ([9]; sub-MIC PlySs2 (4 ug/ml)): 8 to 16 fold | suppression of vancomycin resistance relative to vancomycin alone ([9]; sub-MIC PlySs2 (8 ug/ml)): 4 to 8 fold | bacteriolysis by electron microscopy (S. aureus cocci): extensive bacteriolysis
